Reference: the supplement of paper PMC10567573

B1: TMEM175 (parent)
chain: ALLHQAETLQPSVWFGGREHVLMF
B2: ZNF263 (parent)
chain: VPGTQVGQGGKLWDPSVQSCKEGL

Variants of: B1
Assay: protein stability index of a GFP-peptide fusion (GPS, HEK-293T) (PSI 1-6); higher = more stable
Conditions: c terminus: a fixed tail appended
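Further: lentivirally expressed fusions sorted by FACS into six bins by GFP to DsRed ratio, PSI derived from sequencing read proportions per bin multiplied by bin number.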

Protein stability index: each site, then its substitutions
L2: V 1.3 | I 3.26 | H 1.48 | G 1.2 | S 2.83 | T 1.53 | M 1.93 | E 1.93 | P 1.87 | C 3.82 | A 2.96 | N 1.06 | D 2.01 | Q 1.42
A1: P 1.69 | E 1.02 | D 1.48 | C 1.71 | G 2.95 | L 2.58 | Q 2.96 | H 2.14 | K 2.35 | I 3.59 | T 2.38 | F 2.59 | R 1.81 | Y 2.71
H4: A 1.9
L3: A 1.76 | N 1.04 | Y 3.46 | G 2.83 | R 1.62 | H 1.57 | C 2.26 | S 2.25 | K 1.71 | E 1.94 | V 1.31 | Q 1.54 | P 1.61 | T 2.37 | D 1.87

Variants of: B2
Assay: as above
Conditions: c terminus: a fixed tail appended

Protein stability index, by site and new letter:
L24: C 3.9 | T 4.26 | K 4.8 | S 4.99 | F 4.11 | V 4.35 | P 4.79 | G 4.49 | Q 5.03 | H 4.27 | A 4.69 | D 5.51 | E 5.18 | R 4.92 | I 4.22 | M 4.09 | W 4.32 | N 4.76 | Y 3.73
E22: S 3.95 | P 3.46 | L 2.96 | W 1.99 | D 4.25 | C 3.42 | N 3.64 | I 3.23 | R 4.05 | V 3.79 | K 4.49 | Q 3.84 | T 4.42 | Y 3.07 | M 3.13 | A 3.06 | G 4.34 | H 3.98 | F 2.58
S19: R 3.89 | T 4.29 | I 3.77 | C 3.39 | M 3.69 | H 4.05 | W 3.38 | A 4.35 | P 4.33 | G 4.41 | E 4.38 | N 4.39 | D 4.88 | K 4.25 | Q 4.3 | F 3.98 | L 4.04 | Y 3.76 | V 4.31
C20: A 4.15 | I 3.79 | G 4.74 | Y 3.52 | N 4.68 | H 3.6 | Q 4.6 | T 4.25 | E 5.02 | K 4.13 | V 4.36 | F 3.1 | S 4.31 | W 3.08 | R 4.04 | D 4.59 | L 4.05 | M 4.43 | P 4.33
K21: W 3.52 | Q 4.29 | F 3.27 | L 3.69 | D 4.79 | R 4.04 | N 4.16 | T 5.17 | S 3.72 | C 4.64 | M 3.92 | Y 3.4 | H 4.05 | V 3.89 | E 4.78 | A 3.91 | G 3.99
Q18: P 4.38 | K 4.39 | M 4.38 | W 3 | L 3.97 | R 3.05 | S 3.88 | T 4.47 | V 3.87 | Y 4.01 | N 3.42
G23: I 3.46 | K 4.35 | N 4.34 | Q 3.51 | F 2.69 | L 3.62 | S 3.98 | R 4.34 | Y 2.96 | W 3.12 | D 4.36 | E 4.4 | A 3.89 | M 3.88 | C 3.59 | V 4.6 | P 4.32 | H 3.64 | T 3.96
